According to patent US6790610B2, “Alzheimer's disease, secretase, APP substrates therefor, and uses therefor” (Pharmacia & Upjohn Company, priority 1998, dated 2004):
Where a SMILES comes first, the peptide text is derived from it. [ ]: non-standard residue; d: D form. The star is where a group is joined. Sta = CC(C)C[C@H](N)[C@@H](O)CC(=O)O; Isovaleryl = CC(C)CC(=O)*

Assays:
[1] = target: T1, Hu-Asp2(b) (Homo sapiens, UniProt P56817); test: β-Secretase proteolysis assay with Hu-Asp2(b); type: biochemical; settings: identical assay conditions to Asp2(a)
T1 construct: made in house; host or cells: CHO-K1 transfected with pcDNA3.1(+)Hygro/Hu-Asp2(b); β-octylglucoside extract purified over Mono Q and Mono S
T1 sequence (P56817 46-476 isoform P56817-2): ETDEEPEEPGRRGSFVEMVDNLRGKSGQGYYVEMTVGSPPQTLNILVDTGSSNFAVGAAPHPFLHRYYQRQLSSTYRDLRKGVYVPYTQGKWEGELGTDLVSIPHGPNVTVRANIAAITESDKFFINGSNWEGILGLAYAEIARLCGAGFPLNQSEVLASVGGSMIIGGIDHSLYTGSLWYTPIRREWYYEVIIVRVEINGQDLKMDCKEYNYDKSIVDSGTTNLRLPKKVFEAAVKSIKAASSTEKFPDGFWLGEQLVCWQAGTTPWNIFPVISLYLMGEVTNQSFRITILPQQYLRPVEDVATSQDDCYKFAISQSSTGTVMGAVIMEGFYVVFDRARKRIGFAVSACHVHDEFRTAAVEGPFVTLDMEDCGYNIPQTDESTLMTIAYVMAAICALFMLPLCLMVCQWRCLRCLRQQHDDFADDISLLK
Protocol: Recombinant human Asp2(a) prepared in CHO cells and purified as described in Example 11 was used to assay Asp2(a) proteolytic activity directly. Activity assays for Asp2(a) were performed using synthetic peptide substrates containing either the wild-type APP β-secretase site (SEVKM ↓DAEFR; SEQ ID NO: 64), the Swedish KM→NL mutation (SEVNL↓DAEFR; SEQ ID NO: 63), or the Aβ40 and 42 γ-secretase sites (RRGGVV↓IA↓TVIVGER; SEQ ID NO: 65). Reactions were performed in 50 mM 2-[N-morpholino]ethane-sulfonate (“Na-MES,” pH 5.5) containing 1% β-octylglucoside, […] peptide substrate, and recombinant Asp2(a) (1-5 μg protein) for various times at 37° C. The reaction products were quantified by RP-HPLC using a linear gradient from 0-70 B over 30 minutes (A=0.1% TFA in water, B=0.1% TFA/10% water/90% AcCN). The elution profile was monitored by absorbance at 214 nm. In preliminary experiments, the two product peaks which eluted before the intact peptide substrate, were confirmed to have the sequence DAEFR (SEQ ID NO: 72)and SEVNL (SEQ.ID NO: 73) using both Edman sequencing and MADLI-TOF mass spectrometry. Percent hydrolysis of the peptide substrate was calculated by comparing the integrated peak areas for the two product peptides and the starting material derived from the absorbance at 214 nm. […]

[2] = target: T2, Recombinant human Asp2(a) (Homo sapiens, UniProt P56817); test: β-Secretase assay with synthetic peptide substrates (RP-HPLC); type: biochemical
T2 construct: made in house; β-octylglucoside membrane extract purified over Mono Q and Mono S
T2 sequence (P56817 46-501): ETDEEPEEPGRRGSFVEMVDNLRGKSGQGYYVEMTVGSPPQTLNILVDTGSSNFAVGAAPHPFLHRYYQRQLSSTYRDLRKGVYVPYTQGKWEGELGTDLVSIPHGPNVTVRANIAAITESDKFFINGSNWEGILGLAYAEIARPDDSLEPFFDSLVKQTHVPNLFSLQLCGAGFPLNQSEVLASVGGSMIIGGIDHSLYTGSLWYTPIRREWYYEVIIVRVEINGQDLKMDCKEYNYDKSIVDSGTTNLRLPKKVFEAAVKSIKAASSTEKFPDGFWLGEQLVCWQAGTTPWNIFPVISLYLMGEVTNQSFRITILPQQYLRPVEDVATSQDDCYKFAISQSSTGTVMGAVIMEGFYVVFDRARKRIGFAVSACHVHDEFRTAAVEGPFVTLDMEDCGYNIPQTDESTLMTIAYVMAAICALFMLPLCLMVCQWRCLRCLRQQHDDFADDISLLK
Protocol: Recombinant human Asp2(a) prepared in CHO cells and purified as described in Example 11 was used to assay Asp2(a) proteolytic activity directly. Activity assays for Asp2(a) were performed using synthetic peptide substrates containing either the wild-type APP β-secretase site (SEVKM ↓DAEFR; SEQ ID NO: 64), the Swedish KM→NL mutation (SEVNL↓DAEFR; SEQ ID NO: 63), or the Aβ40 and 42 γ-secretase sites (RRGGVV↓IA↓TVIVGER; SEQ ID NO: 65). Reactions were performed in 50 mM 2-[N-morpholino]ethane-sulfonate (“Na-MES,” pH 5.5) containing 1% β-octylglucoside, […] peptide substrate, and recombinant Asp2(a) (1-5 μg protein) for various times at 37° C. The reaction products were quantified by RP-HPLC using a linear gradient from 0-70 B over 30 minutes (A=0.1% TFA in water, B=0.1% TFA/10% water/90% AcCN). The elution profile was monitored by absorbance at 214 nm. […] Percent hydrolysis of the peptide substrate was calculated by comparing the integrated peak areas for the two product peptides and the starting material derived from the absorbance at 214 nm. […]
The specificity of the protease cleavage reaction was determined by performing the β-secretase assay in the presence of 8 μM pepstatin A and the presence of a cocktail of protease inhibitors (10 μM leupeptin, 10 μM E64, and 5 mM EDTA). […]

Molecule	cleavage of peptide substrate [1]	proteolysis relative to wild type APP peptide ([2]; after 6 hours, pH 5.5, 37° C.)	sensitivity of proteolytic activity to inhibitor ([2]; 8 μM pepstatin A)
SEVNLDAEFR (OTHER INFORMATION: Description of Artificial Sequence: synthetic) [Swedigh β-secretase peptide, synthetic peptide substrate containing the Swedish KM→NL mutation of the APP β-secretase site]	cleaves	about 10 fold	–
CC(C)CC(=O)N[C@H](C(=O)N[C@H](C(=O)N[C@@H](CC(C)C)[C@@H](O)CC(=O)N[C@@H](C)C(=O)N[C@@H](CC(C)C)[C@@H](O)CC(=O)O)C(C)C)C(C)C [pepstatin A] (Isovaleryl-VV[Sta]A[Sta]-OH)	–	–	insensitive
